Source: PMC5437227

What was measured:
[1] = molecular target: pH-GluA1 S831D phosphomimetic mutant (UniProt P19490); assay: co-IP; HEK293 cells co-transfected with HA-Nedd4-1 and pH-GluA1 constructs, lysed 48 h later (1% Triton X-100 lysis buffer with 10 mM N-ethylmaleimide); immunoprecipitation with anti-GFP antibodies on protein A-Sepharose overnight at 4 °C; blots with anti-HA and anti-GluA1; bound HA-Nedd4-1 quantified and normalized to the wild-type control
[2] = molecular target: pH-GluA1 S831A phosphodeficient mutant (UniProt P19490); assay: as above
[3] = molecular target: pH-GluA1 S845D phosphomimetic mutant (UniProt P19490); assay: as above
[4] = molecular target: pH-GluA1 S845A phosphodeficient mutant (UniProt P19490); assay: as above
[5] = molecular target: pH-GluA1 S845D phosphomimetic mutant (UniProt P19490)

HA-Nedd4-1 binding, percent of WT control (% of WT control) [1]: 112
HA-Nedd4-1 binding, percent of WT control (% of WT control) [2]: 74.1
HA-Nedd4-1 binding, percent of WT control (% of WT control) [3]: 53.2
HA-Nedd4-1 binding, percent of WT control (% of WT control) [4]: 90.9
AMPA-induced ubiquitination of pH-GluA1 S845D in cortical neurons (IP: GFP, blot for ubiquitin), relative to wild type (% of WT control) [5]: 65.2
Substance: HA-Nedd4-1 (from UniProt P46934 1-1319) (enzyme)
